The values below come from US20220119534A1 (DRAGONFLY THERAPEUTICS, published 2022).

Assay [1] addresses T1, human CLEC12A expressed on cells (human, UniProt Q5QGZ9 1-265).
T1 construct: Transduced isogenic cells or endogenous expression on AML cells; also called RMA-hCLEC12A; Ba/F3-hCLEC12A
T1 sequence: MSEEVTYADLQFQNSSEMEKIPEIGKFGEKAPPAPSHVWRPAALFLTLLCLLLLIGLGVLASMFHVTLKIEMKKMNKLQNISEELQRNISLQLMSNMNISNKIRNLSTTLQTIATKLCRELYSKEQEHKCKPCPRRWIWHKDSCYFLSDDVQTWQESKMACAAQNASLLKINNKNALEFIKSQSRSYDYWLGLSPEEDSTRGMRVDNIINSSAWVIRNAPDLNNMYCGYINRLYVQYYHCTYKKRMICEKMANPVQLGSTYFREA
As to the kind of experiment: flow cytometry on PL21 cells, surface-bound molecule after 2 h at 37 C relative to 20 min on ice. (In general: A flow cytometer gives signals particle by particle.)
Experimental: Human cancer cell lines HL60 and PL21 expressing human CLEC12A were used to assess surface retention of CLEC12A-TriNKETs after incubation with cells. PL21 or HL60 cells in duplicate plates were incubated with TriNKETs or mAbs as indicated. The first plate was moved to 37° C. for two hours, whereas the second plate was incubated on ice for 20 minutes. After the respective incubation times, cells were washed. Surface bound TriNKET or mAb was detected using a fluorescent secondary antibody for flow cytometry.
100,000 cells were seeded per well into duplicate 96-well plates for FACS staining. Cells were washed with FACS buffer. Test articles were diluted to 40 nM and were added to each of the duplicate plates. The first plate was incubated on ice for 2 hours, while the second plate was moved to 37° C. for two hours. After the incubation, cells were washed with PBS and cells were incubated in a 1:2000 dilution of live/dead dye in PBS for 15 minutes, then washed with FACS buffer. Anti-human IgG-Fc secondary antibody was diluted into FACS buffer, and 50 μl was added per well for detection of the bound TriNKETs or mAbs. Cells were incubated for 20 minutes on ice, then washed with FACS buffer. 50 μl of fixation buffer was added to each well, and cells were incubated for 10 minutes at room temperature. […] Surface retention was then calculated as follows:

Assay [2] concerns the target T1, human CLEC12A expressed on cells. The experiment in a line: flow cytometry, PL21 cells.
Experimental: The ability of the eight purified subcloned mAbs to bind to CLEC12A expressing cells was assessed by FACS analysis with human CLEC12A-positive PL21 cancer cell line.
The target in assay [3] is T2, recombinant cynomolgus CLEC12A-His (cynomolgus monkey, UniProt A0A2K5WXQ4 71-271).
T2 construct: also called cCLEC12A-His; cCLEC12A
T2 sequence: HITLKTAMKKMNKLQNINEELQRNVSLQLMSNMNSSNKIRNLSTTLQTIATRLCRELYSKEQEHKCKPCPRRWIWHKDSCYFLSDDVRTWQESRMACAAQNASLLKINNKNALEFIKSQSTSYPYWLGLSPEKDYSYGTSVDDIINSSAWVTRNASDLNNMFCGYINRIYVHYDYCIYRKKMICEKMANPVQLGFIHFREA
As to the kind of experiment: SPR, purified murine subclone mAb and Cyno CLEC12A-His.

Assay [4] deals with T3, cynomolgus CLEC12A expressed on RMA cells (cynomolgus monkey, UniProt A0A2K5WXQ4 7-271).
T3 construct: whole, on cells; also called cCLEC12A isogenic cell line
T3 sequence: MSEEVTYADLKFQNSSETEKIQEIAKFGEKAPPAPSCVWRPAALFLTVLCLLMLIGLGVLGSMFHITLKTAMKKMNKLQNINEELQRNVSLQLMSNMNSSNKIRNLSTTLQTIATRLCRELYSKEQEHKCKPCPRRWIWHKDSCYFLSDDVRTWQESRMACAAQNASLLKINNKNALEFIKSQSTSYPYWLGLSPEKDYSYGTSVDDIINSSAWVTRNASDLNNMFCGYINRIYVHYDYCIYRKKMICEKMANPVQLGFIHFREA
As to the kind of experiment: flow cytometry, RMA-cCLEC12A, hybridoma supernatant.
Experimental: Briefly, RMA cells were transducted with a retroviral vector encoding cCLEC12A or hCLEC12A. […] 100,000 RMA, REH or SEM cells were added per well of a 96 well round bottom plate. Cells were spun down and the pellet was gently dissociated by vortexing. 100 μL of Zombie live/dead dye (PBS+1:2000 dye) were added per well and incubated in the dark at room temperature for 20 minutes. Cells were washed with 200 μL of FACS buffer (PBS+2% FBS). 50 μL of hybridoma supernatants were added to the washed cells and the mixtures were incubated for 30 minutes on ice in the dark. Cells were washed twice with FACS buffer and then 50 μL of anti-mouse Fc-PE secondary reagent (1:200 dilution) were added and incubated for 20 minutes on ice in the dark. After the incubation, the cells were washed and then fixed with 50 μL of 4% paraformaldehyde for 15 minutes on ice. The fixed cells were washed with FACS buffer, resuspended in 200 μL FACS buffer, and stored at 4° C. until ready for acquisition. The samples of cells resuspended in FACS buffer were run on BD FACSCelesta equipped with an HTS (high throughput sampler) to determine the binding affinities of the antibodies to isogenic RMA cells expressing CLEC12A and the U937 AML cancer cell line.

Assay [5] has as its target T4, recombinant human CLEC12A-His (human, UniProt Q5QGZ9 65-265).
T4 construct: also called hCLEC12A-His; hCLEC12A
T4 sequence: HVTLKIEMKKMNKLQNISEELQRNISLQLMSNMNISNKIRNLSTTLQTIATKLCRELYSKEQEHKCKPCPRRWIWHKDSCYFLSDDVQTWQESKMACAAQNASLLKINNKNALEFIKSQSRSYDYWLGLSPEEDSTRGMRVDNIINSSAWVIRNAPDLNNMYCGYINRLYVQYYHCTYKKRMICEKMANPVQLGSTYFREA
The experiment in a line: SPR, purified murine mAb. (In general: In SPR one partner is held on a chip, and binding of the other changes the refractive index at the surface.)

Assay [6] deals with T1, human CLEC12A expressed on cells. The experiment in a line: flow cytometry (MFI) on CLEC12A+ PL-21 AML cells, about 0.2 to 130 nM, plateau about 250 MFI; the molecule is assigned by panel order and legend paragraph 296.
Assay [7] has as its target T4, recombinant human CLEC12A-His. As to the kind of experiment: SPR; sensorgrams of a CLEC12A concentration series with fit overlays (response up to about 18, time axis 0 to about 900).
Assay [8] concerns the target T2, recombinant cynomolgus CLEC12A-His. The experiment in a line: SPR, purified murine subclone mAb and Cyno CLEC12A-His. The source holds these as a separate data set.
The target of assay [9] is T1, human CLEC12A expressed on cells. As to the kind of experiment: flow cytometry (gMFI) on CLEC12A+ PL-21 AML cells.
A further assay deals with T5, de-sialylated hCLEC12A (human, UniProt Q5QGZ9 65-265, terminal sialic acids removed (neuraminidase)).
T5 construct: also called De-sialylated CLEC12A
T5 sequence: T4 sequence
The experiment in a line: SPR.

In assay [10] the target is T4, recombinant human CLEC12A-His. The experiment in a line: SPR.
For the next assay, the target named is T6, de-glycosylated hCLEC12A (human, UniProt Q5QGZ9 65-265, N-linked glycans removed (PNGase F)).
T6 construct: also called PNGase-treated hCLEC12A; De-glycosylated CLEC12A
T6 sequence: T4 sequence
The experiment in a line: SPR.

Assay [11] deals with T4, recombinant human CLEC12A-His. The experiment in a line: SPR, CLEC12A binding.
Assay [12] has the same target. As to the kind of experiment: SPR screening, fully purified mAb.
In assay [13] the target is T2, recombinant cynomolgus CLEC12A-His. The experiment in a line: SPR, purified murine subclone mAb and Cyno CLEC12A-His. The source holds these as a separate data set.

Read-outs that look alike come from different tables or passages of the source. Bounds are passed on as bounds.

What is called EC50 is the concentration needed to bring the measured effect to its halfway point. Usually Kd stands for the equilibrium constant for the complex coming apart. Usually koff stands for the rate constant with which the complex falls apart. Usually kon stands for the rate constant with which the complex forms.

B1: AB0147 TriNKET (other)
chain: QLQLQESGPGLVKPSETLSLTCTVSGFSLTNYGLHWIRQPPGKCLEWIGVILSGGWTDYNPSLKSRVTISKDTSKNQFSLKLSSVQAADTAVYYCAKGDYGDALDYWGQGTLVTVSSGGGGSGGGGSGGGGSGGGGSDIQMTQSPSSLSASVGDRVTITCHASQNINFWLSWYQQKPGKAPKLLIYEASNLHTGVPSRFSGSGSGTRFTLTISSLQPEDIATYYCQQSHSYPLTFGCGTKLEIKGSDKTHTCPPCPAPELLGGPSVFLFPPKPKDTLMISRTPEVTCVVVDVSHEDPEVKFNWYVDGVEVHNAKTKPREEQYNSTYRVVSVLTVLHQDWLNGKEYKCKVSNKALPAPIEKTISKAKGQPREPRVYTLPPCRDELTKNQVSLTCLVKGFYPSDIAVEWESNGQPENNYKTTPPVLVSDGSFTLYSKLTVDKSRWQQGNVFSCSVMHEALHNHYTQKSLSLSPG
heavy: EVQLVESGGGLVKPGGSLRLSCAASGFTFSSYSMNWVRQAPGKGLEWVSSISSSSSYIYYADSVKGRFTISRDNAKNSLYLQMNSLRAEDTAVYYCARGAPIGAAAGWFDPWGQGTLVTVSSASTKGPSVFPLAPSSKSTSGGTAALGCLVKDYFPEPVTVSWNSGALTSGVHTFPAVLQSSGLYSLSSVVTVPSSSLGTQTYICNVNHKPSNTKVDKKVEPKSCDKTHTCPPCPAPELLGGPSVFLFPPKPKDTLMISRTPEVTCVVVDVSHEDPEVKFNWYVDGVEVHNAKTKPREEQYNSTYRVVSVLTVLHQDWLNGKEYKCKVSNKALPAPIEKTISKAKGQPREPQVCTLPPSRDELTENQVSLTCLVKGFYPSDIAVEWESNGQPENNYKTTPPVLDSDGSFFLYSWLTVDKSRWQQGNVFSCSVMHEALHNHYTQKSLSLSPG
light: DIQMTQSPSSVSASVGDRVTITCRASQGISSWLAWYQQKPGKAPKLLIYAASSLQSGVPSRFSGSGSGTDFTLTISSLQPEDFATYYCQQGVSFPRTFGGGTKVEIKRTVAAPSVFIFPPSDEQLKSGTASVVCLLNNFYPREAKVQWKVDNALQSGNSQESVTEQDSKDSTYSLSSTLTLSKADYEKHKVYACEVTHQGLSSPVTKSFNRGEC
On to B1, for which the binding result in assay [1] is “binds”.

B2: 9E4.B7 (antibody, V domains shown)
VH: EVQLQESGAELMKPGASVKISCRTTGYTFSTYWIEWVKQRPGRGPEWIGELFPGNSDTTLNEKFTGKATFTADSSSNTAYMQLSSLTSEDSAVYYCARSGYYGSSLDYWGQGTTLTVSS
VL: GIVMTQSPASLSASVGETVTITCRAGENIHSYLAWYQQKQGKSPQLLVYNAKTLAEGVPSRFSGSGSGTQFSLKINSLQPEDFGSYYCQHHYGTPRTFGGGTKLEIK
notes: Murine mAb; also called 9E04
B2: in assay [2], the EC50 was 0.64 nM and the “Max MFI” value turned out to be 186 MFI. The binding result in assay [3] is “no binding”. Moreover, the binding result in assay [4] was “no binding”.

B3: 9F11.B7 (antibody, V domains shown)
VH: EVQLQESGGGLVQPGGSRKLSCAASGFTFNSFGMHWVRQAPEKGLEWVAFISSGSTSIYYANTVKGRFTISRDNPKNTLFLQMTSLRSEDTAMYYCARDGYPTGGAMDYWGQGTSVTVSS
VL: DIKMTQSPSSMYASLGERVTITCKASQDIYNYLSWFQLKPGKSPRPLIYRANILVSGVPSKFSGSGSGQDYSLTINSLEYEDLGIYYCLQFDAFPFTFGSGTKLEIK
notes: Murine mAb
On to B3, for which, in [5], the Kd turned out to be 1.4 nM, the koff is 0.00157 s⁻¹ and the kon was found to be 1.14e+06 M⁻¹ s⁻¹. This molecule had an EC50 in assay [6] of 0.5 nM. In addition, in [2], a half-maximal response (EC50) required 0.56 nM and the “Max MFI” value came out at 217 MFI. Further, the Kd in [7] stood at 1.1 nM. Moreover, the binding result in [4] was “no binding”. Besides, the binding result in assay [8] is recorded as “no binding”.

B4: 16B8.C8 (antibody, V domains shown)
VH: EVQLQESGPGLVQPSQSLSITCTVSGFSLTNYGLHWVRQSPGKGLEWLGVIWSGGKTDYNTPFKSRLSISKDISKNQVFFKMNSLQPNDTAIYFCAKYDYDDSLDYWGQGTSVTVSS
VL: DIQMNQSPSSLSASLGDTIAITCHASQNINFWLSWYQQKPGNIPKLLIYEASNLHTGVPSRFSGSGSGTRFTLTISSLQPEDIATYYCQQSHSYPLTFGQGTKLEIK
notes: Murine mAb; also called 16B08; m16B8.C8
Consider B4, for which the EC50 in assay [9] worked out at 0.2 nM; in assay [2], 0.18 nM. The Kd in assay [5] was 0.01 nM; in the assay with de-sialylated hCLEC12A, 7 pM; in [10], 0.012 nM; with de-glycosylated hCLEC12A it was 0.011 nM; in assay [11], at most 0.011 nM; in assay [12] it was 8 pM. The koff is 4.44e-05 s⁻¹ in [5]; 3.62e-05 s⁻¹ with de-sialylated hCLEC12A; 4.7e-05 s⁻¹ in assay [10]; 4.45e-05 s⁻¹ with de-glycosylated hCLEC12A; 2.35e-05 s⁻¹ in [12]. Also, the association rate constant (kon) in assay [5] amounted to 4.05e+06 M⁻¹ s⁻¹; with de-sialylated hCLEC12A, 5.25e+06 M⁻¹ s⁻¹; in assay [10], 4.05e+06 M⁻¹ s⁻¹; in the assay with de-glycosylated hCLEC12A it was 4.26e+06 M⁻¹ s⁻¹; in [12] it was 3.03e+06 M⁻¹ s⁻¹. For the same molecule, in assay [2], the “Max MFI” value came out at 300 MFI. For the same molecule, the binding result in [4] and in assay [13] was “no binding” each time.
